Among the targets are Rab11A K13N (human) (UniProt P62491); Rab11A S40F (human) (UniProt P62491); Rab11A L38P (human) (UniProt P62491); Rab11A K41P (human) (UniProt P62491).
Assay [1] addresses WT Rab11A (1–211, C-term his) (human) (UniProt P62491).
For assay [2], the target named is T1, SH3BP5 (31–455), N-terminally truncated (UniProt O60239 31-455).
T1 construct: also called N-terminally truncated SH3BP5 (31–455); N-terminally truncated variant of SH3BP5; source: E. coli BL21 C41, purified (GSTrap, TEV cleavage, HiTrap Q, SEC); not shown: GST, N-terminal, cleaved
T1 sequence (looked up): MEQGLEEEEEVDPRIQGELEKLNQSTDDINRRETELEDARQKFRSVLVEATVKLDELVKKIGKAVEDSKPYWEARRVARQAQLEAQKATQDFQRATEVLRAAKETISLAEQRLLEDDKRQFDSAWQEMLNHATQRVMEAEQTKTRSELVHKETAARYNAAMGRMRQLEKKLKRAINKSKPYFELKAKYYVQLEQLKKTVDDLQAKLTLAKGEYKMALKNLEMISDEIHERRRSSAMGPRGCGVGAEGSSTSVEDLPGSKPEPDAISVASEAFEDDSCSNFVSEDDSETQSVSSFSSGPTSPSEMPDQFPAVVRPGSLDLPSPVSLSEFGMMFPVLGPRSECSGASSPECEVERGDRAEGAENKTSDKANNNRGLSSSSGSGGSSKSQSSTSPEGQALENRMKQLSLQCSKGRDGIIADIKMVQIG
Kind of assay: HDX-MS; 1.0 µM Rab11(Q70L) and 1.0 µM SH3BP5 (31–455), incubated on ice with 20 µM EDTA for 1 h; D2O buffer 10 mM HEPES pH 7.5, 500 mM NaCl; 3 s at 1 °C and 3, 30, 300 s at room temperature. The settings on record: both partners purified.

In assay [3] the target is T2, SH3BP5 (1–265), crystal construct (N-terminal GEF domain of SH3BP5) (UniProt O60239 1-265).
T2 construct: A SeMet form made in E. coli B834 was used for phasing; source: E. coli BL21 C41, purified (GSTrap, TEV cleavage, HiTrap Q, SEC); not shown: GST, N-terminal, cleaved
T2 sequence (looked up): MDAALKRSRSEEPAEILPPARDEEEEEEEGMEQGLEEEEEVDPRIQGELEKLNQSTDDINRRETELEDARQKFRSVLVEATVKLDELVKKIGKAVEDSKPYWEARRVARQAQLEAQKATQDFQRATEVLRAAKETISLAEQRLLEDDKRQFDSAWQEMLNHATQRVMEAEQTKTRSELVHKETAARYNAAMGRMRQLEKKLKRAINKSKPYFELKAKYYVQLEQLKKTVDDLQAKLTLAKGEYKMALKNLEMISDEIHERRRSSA
The assay is described as follows: SEC; SH3BP5 truncation and Rab11(Q70L) mixed at an equimolar amount, 5 min at 4 °C, 20 mM EDTA (pH 7.5) for 1 h at 4 °C, loaded onto Superdex 200 10/300. The following applies: both partners purified. (SEC sorts molecules by how far they enter the pores of the column.)

Sequence of Rab11A K13N (human) (P62491 whole entry K13N): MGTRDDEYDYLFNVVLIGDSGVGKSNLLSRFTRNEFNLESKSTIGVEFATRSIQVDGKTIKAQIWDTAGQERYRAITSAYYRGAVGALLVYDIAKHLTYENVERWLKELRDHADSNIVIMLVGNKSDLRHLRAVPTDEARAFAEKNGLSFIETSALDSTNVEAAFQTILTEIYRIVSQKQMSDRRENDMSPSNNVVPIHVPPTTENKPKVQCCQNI
Sequence of WT Rab11A (1–211, C-term his) (human) (P62491 1-211): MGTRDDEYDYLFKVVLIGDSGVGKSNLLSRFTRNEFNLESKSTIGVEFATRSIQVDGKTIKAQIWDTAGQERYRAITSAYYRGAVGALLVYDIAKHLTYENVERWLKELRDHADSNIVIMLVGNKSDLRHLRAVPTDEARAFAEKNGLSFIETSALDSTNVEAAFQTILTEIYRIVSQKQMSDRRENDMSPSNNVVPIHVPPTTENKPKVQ

B1: SH3BP5 (LE250AK) (natural protein)
chain: MDAALKRSRSEEPAEILPPARDEEEEEEEGMEQGLEEEEEVDPRIQGELEKLNQSTDDINRRETELEDARQKFRSVLVEATVKLDELVKKIGKAVEDSKPYWEARRVARQAQLEAQKATQDFQRATEVLRAAKETISLAEQRLLEDDKRQFDSAWQEMLNHATQRVMEAEQTKTRSELVHKETAARYNAAMGRMRQLEKKLKRAINKSKPYFELKAKYYVQLEQLKKTVDDLQAKLTLAKGEYKMALKNAKMISDEIHERRRSSAMGPRGCGVGAEGSSTSVEDLPGSKPEPDAISVASEAFEDDSCSNFVSEDDSETQSVSSFSSGPTSPSEMPDQFPAVVRPGSLDLPSPVSLSEFGMMFPVLGPRSECSGASSPECEVERGDRAEGAENKTSDKANNNRGLSSSSGSGGSSKSQSSTSPEGQALENRMKQLSLQCSKGRDGIIADIKMVQIG
Take B1: the GEF activity on Rab11A (Mant-GDP release), mutant (1000 nM) compared with WT SH3BP5 (52 nM) (fold decrease) in assay [1] was > 100.

B2: SH3BP5 (1–455), full-length (natural protein)
chain: MDAALKRSRSEEPAEILPPARDEEEEEEEGMEQGLEEEEEVDPRIQGELEKLNQSTDDINRRETELEDARQKFRSVLVEATVKLDELVKKIGKAVEDSKPYWEARRVARQAQLEAQKATQDFQRATEVLRAAKETISLAEQRLLEDDKRQFDSAWQEMLNHATQRVMEAEQTKTRSELVHKETAARYNAAMGRMRQLEKKLKRAINKSKPYFELKAKYYVQLEQLKKTVDDLQAKLTLAKGEYKMALKNLEMISDEIHERRRSSAMGPRGCGVGAEGSSTSVEDLPGSKPEPDAISVASEAFEDDSCSNFVSEDDSETQSVSSFSSGPTSPSEMPDQFPAVVRPGSLDLPSPVSLSEFGMMFPVLGPRSECSGASSPECEVERGDRAEGAENKTSDKANNNRGLSSSSGSGGSSKSQSSTSPEGQALENRMKQLSLQCSKGRDGIIADIKMVQIG
For B2, the SH3BP5-mediated GEF activity (Mant-GDP release, kcat/Km), mutant compared with WT Rab11A (fold decrease) in the assay with Rab11A K13N (human), with Rab11A S40F (human), with Rab11A L38P (human) and with Rab11A K41P (human) was > 100 in each case.

B3: Rab11A Q70L (1–213) (natural protein, human, UniProt P62491 1-213, looked up)
chain: MGTRDDEYDYLFKVVLIGDSGVGKSNLLSRFTRNEFNLESKSTIGVEFATRSIQVDGKTIKAQIWDTAGLERYRAITSAYYRGAVGALLVYDIAKHLTYENVERWLKELRDHADSNIVIMLVGNKSDLRHLRAVPTDEARAFAEKNGLSFIETSALDSTNVEAAFQTILTEIYRIVSQKQMSDRRENDMSPSNNVVPIHVPPTTENKPKVQCC
notes: called full-length in the results; dominant active switch II mutant Q70L; Nucleotide removed with EDTA before complex formation; The limits 1-213 are printed for the crystal only; A SeMet form was used for phasing; also called Rab11(Q70L); full-length Q70L Rab11A; source: E. coli BL21 C41, purified (GSTrap, TEV cleavage, HiTrap Q, SEC); not shown: GST, N-terminal, cleaved
Turning to B3, the binding result in assay [2] and in assay [3] was “binds” each time.

The record behind these values is paper PMC6138693, “Structural determinants of Rab11 activation by the guanine nucleotide exchange factor SH3BP5” (Nature Communications, 2018).
